From patent US20050271651A1, “Inhibition of bright function as a treatment for excessive immunoglobulin production” (Oklahoma Medical Research Foundation, published 2005)

T1: Bright (ARID3A/Dril1) (Homo sapiens, UniProt Q99856 SEQ:1-593)
T1 sequence: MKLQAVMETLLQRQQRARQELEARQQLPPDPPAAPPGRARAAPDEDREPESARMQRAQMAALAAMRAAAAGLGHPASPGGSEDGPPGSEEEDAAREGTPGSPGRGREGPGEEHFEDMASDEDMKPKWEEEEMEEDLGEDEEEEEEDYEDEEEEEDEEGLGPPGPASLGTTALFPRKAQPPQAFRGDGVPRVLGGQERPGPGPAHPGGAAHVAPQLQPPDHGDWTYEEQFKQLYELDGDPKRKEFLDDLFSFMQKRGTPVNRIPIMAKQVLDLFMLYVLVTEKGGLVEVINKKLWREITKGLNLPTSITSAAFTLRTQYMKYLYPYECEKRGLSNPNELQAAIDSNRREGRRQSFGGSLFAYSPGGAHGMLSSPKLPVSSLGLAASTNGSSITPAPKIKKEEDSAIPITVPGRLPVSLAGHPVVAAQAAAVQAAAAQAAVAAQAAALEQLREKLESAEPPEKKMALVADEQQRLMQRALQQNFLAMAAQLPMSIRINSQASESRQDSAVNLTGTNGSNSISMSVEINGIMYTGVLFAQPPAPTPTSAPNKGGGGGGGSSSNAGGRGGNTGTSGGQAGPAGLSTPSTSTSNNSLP

T2: mouse Bright, native (untagged) wild-type (mouse, UniProt Q62431 1-601)
T2 construct: range 1-601; Untagged protein, tested in three forms: expressed in CHO cells, in vitro translated, or endogenous in the mouse B cell lines BCg3R-1d and M12g3Ri; Found as a dimer in solution by size exclusion chromatography; also called native Bright; wild-type Bright
T2 sequence (looked up): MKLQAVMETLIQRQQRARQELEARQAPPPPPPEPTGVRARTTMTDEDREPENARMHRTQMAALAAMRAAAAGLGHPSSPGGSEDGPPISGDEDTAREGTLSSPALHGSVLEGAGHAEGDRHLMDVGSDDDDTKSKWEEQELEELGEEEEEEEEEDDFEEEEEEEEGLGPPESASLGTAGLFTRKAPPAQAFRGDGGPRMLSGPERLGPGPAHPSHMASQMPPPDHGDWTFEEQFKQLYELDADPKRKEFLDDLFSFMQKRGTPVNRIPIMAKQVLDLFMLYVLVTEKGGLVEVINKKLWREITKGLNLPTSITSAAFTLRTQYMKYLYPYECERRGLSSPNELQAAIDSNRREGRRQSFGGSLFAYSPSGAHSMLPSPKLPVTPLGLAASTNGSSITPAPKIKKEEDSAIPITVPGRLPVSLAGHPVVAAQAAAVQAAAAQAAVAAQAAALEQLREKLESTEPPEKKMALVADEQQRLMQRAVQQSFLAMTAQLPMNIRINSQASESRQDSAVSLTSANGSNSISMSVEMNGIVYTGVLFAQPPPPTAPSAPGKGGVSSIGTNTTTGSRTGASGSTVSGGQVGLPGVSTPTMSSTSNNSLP


Tests used:
[1] = biological target: T1, Bright (ARID3A/Dril1); experiment: competition; nonspecific competitor, recombinant Bright; settings: tags: TNT rabbit reticulocyte lysate
Method: Electrophoretic mobility shift assays (EMSAs). Nuclear extracts were prepared by hypotonic lysis, protein concentrations were quantified with Bradford reagents (BioRad, Richmond, Calif.), and EMSAs were performed in 4% nondenaturing acrylamide gels after incubation for 15 min at 37° C. with gamma-³²P-labeled probe, as previously described (Buchanan et al., 1995). The prototypic Bright binding site (a 150 base pair Bam HI-Fok I fragment called bf150) from the S107 V1 5′ flanking sequence (Webb et al., 1991) was used as a probe. In some instances, antibodies were added 5 min before incubation with the probe. […] A double-stranded oligo containing the 45 base pair foot-printed Bright binding site within bf150 described in Webb et al. (1991) was used as a specific competitor in increasing concentrations and a mutated version of that oligonucleotide containing the double-stranded sequence corresponding to 5′-[…]-3′ (SEQ ID NO:6) was used as a non-specific competitor. Underlined nucleotides represent changes from the prototype. Competition assays were performed as previously described (Webb et al., 1991).
To confirm that the protein complexes that reacted with anti-Bright antibodies in FIG. 2D were specific for the Bright binding site, competition experiments were performed in the presence of double-stranded oligonucleotides spanning the Bright binding motif.

[2] = biological target: the molecule itself; experiment: size exclusion chromatography (not shown)
[3] = biological target: T2, mouse Bright, native (untagged) …; experiment: co-expression in CHO cells, anti-myc immunoprecipitation, anti-Bright blot
Method: FIGS. 11A-B—Tagged Bright proteins dimerize with native Bright. (FIG. 11A) Nuclear extracts from cells expressing Bright protein were subjected to size exclusion chromatography and protein fractions were analyzed for Bright by western blotting (lower panel). Data are presented graphically relative to molecular weight standards in the upper panel and are representative of four experiments. (FIG. 11B) C-terminal myc-his tagged Bright was either singly or coexpressed in CHO cells with native Bright. […] Immunoprecipitations using anti-myc Ab (middle panel) and anti-Sp1 as an isotype control (bottom panel) were performed with each of the transfected extracts and developed with anti-Bright reagents. Arrows indicate immunoglobulin heavy chain cross-reactive with the secondary reagent. Data are representative of two separate experiments.
To determine if the mutated proteins formed heterodimers with wild-type Bright, his-myc-tagged mutant forms of Bright were co-expressed in CHO cells with native wild-type Bright. Tagged proteins were distinguished from native Bright by the slight size differences in western blots (FIG. 11B) and were confirmed using anti-tag antibodies (not shown). Anti-myc antibodies were used to immunoprecipitate the tagged proteins and blots were developed with anti-Bright (FIG. 11B). In every case, a lower molecular weight band was detected that reflected the presence of native Bright.

binding result [3]	Binder	binding result [1]	binding result [2]
	mutated Bright site competitor (dsDNA) DNA 1: TAAGTATAAATATGTACATGAGTACACCCTCCACTTATTTATCTTA DNA 2: TAAGATAAATAAGTGGAGGGTGTACTCATGTACATATTTATACTTA	no binding	
binds	mouse Bright REKLES mutant (REKLES at amino acids 455-460 changed to AEALEA), C-terminal myc-his tagged (other, UniProt Q62431 1-601, looked up, range 1-601; not shown: C-terminal myc-his tag from vector pcDNA4/TO/myc-His B) MKLQAVMETLIQRQQRARQELEARQAPPPPPPEPTGVRARTTMTDEDREPENARMHRTQMAALAAMRAAAAGLGHPSSPGGSEDGPPISGDEDTAREGTLSSPALHGSVLEGAGHAEGDRHLMDVGSDDDDTKSKWEEQELEELGEEEEEEEEEDDFEEEEEEEEGLGPPESASLGTAGLFTRKAPPAQAFRGDGGPRMLSGPERLGPGPAHPSHMASQMPPPDHGDWTFEEQFKQLYELDADPKRKEFLDDLFSFMQKRGTPVNRIPIMAKQVLDLFMLYVLVTEKGGLVEVINKKLWREITKGLNLPTSITSAAFTLRTQYMKYLYPYECERRGLSSPNELQAAIDSNRREGRRQSFGGSLFAYSPSGAHSMLPSPKLPVTPLGLAASTNGSSITPAPKIKKEEDSAIPITVPGRLPVSLAGHPVVAAQAAAVQAAAAQAAVAAQAAALEQLAEALEATEPPEKKMALVADEQQRLMQRAVQQSFLAMTAQLPMNIRINSQASESRQDSAVSLTSANGSNSISMSVEMNGIVYTGVLFAQPPPPTAPSAPGKGGVSSIGTNTTTGSRTGASGSTVSGGQVGLPGVSTPTMSSTSNNSLP		binds
